Results published in the DeepSol protein solubility set.

Assay: soluble on expression in E. coli; label from the status in PepcDB or PDB records

Sequence | soluble on expression in E. coli
MSGKRISREKLTIKKMIDLYQAKCPQASAEPEHYEALFVYAQKRLDKCVFGEEKPACKQCPVHCYQPAKREEMKQIMRWAGPRMLWRHPILTVRHLIDDKRPVPELPEKYRPKKPRE | not soluble
MKLNSPSRIHMGLIDLNGELGRVDGGVGVALDYPNFQIEGKESSEIELDSKIEIDEKDRENLESRIKNAARNVLDIIGEDGISLKINEAILSHSGLGSGTQVSLSTGKITSLVYGQDLNAETLAKITGRGGTSGIGVAAFETGGFIVDGGHTFGEGKDKIDFRPSSASKDVKPSPVLFRHDFDWDIVLTIPKGEQVCGDREVDIFRKFCPVPSEDVQKICRLVLMKMMPAVIEKDFNSFGMAVNELQNLGFKRAEVGLQKESLKQLLSKLQDVSYSGISSFGPTIYSLGDKDTITEISNEIFDKFGIDGEIISTKANNSGYEIIK | not soluble
MERRLIFGTIASKMSLAPEADLDSLIIRNDSLSGAVIAAIMQEAGLRAVRKNRYVILQSDLEEAYATQVKTDNTVDKFDFYK | soluble
MDSHVGEVDIFQQCKYIHEVELVNMKLQMRILETHIETKDRLLRNLEDIIDEQESRIANMEDFIQGRATSYTNRSNMLKGISVLSLDFGNLSEENLRLKNALSQMQKVARVNELLETDEDYESDMTSNEDRFALSRDSSCSVPRSVSPQPTGDVIKPYPQMVQSMREEGHWKKLQRCAEELKTEKDELKRLALDTKDAFNVCMAEMRMMLTSKTTDFFRVLIERYKAEMEKRKQLHNQLVELNGNIRVFYRIRPQLASETDNQKPVVVIDEMDNGVVHVSNTTGTRKTSAGADKVIPTDFSQDQIFNEVSPIITSCIDGYNVCIFAYGHTGSGKTYTMDGPVTMPGINQRAIMQLFETAKERTGDIKYDIKVAMMEIYNEKIRDLLNTSNTNLAIRQTEEGRSSIPGLEEVSVNSAEEVTETLARGRKNKAVAATEANIESSRSHVIVRVLVSATNLITKATTVGRLNLVDLAGSERVSQTNATGQLLKEAQAINKSLSELGNVVLALRQNQKHIPFRNCQLTRILEDSLNGDSKTLVIVHLSPDAKSLNESISSVNFAEKIGQVFTKSGTMKREPTRRSMTGISSGQRREIPASPRK | soluble
MAVQLLENWLLKEQEKIQTKYRHLNHISVVEPNILFIGDSIVEYYPLQELFGTSKTIVNRGIRGYQTGLLLENLDAHLYGGAVDKIFLLIGTNDIGKDVPVNEALNNLEAIIQSVARDYPLTEIKLLSILPVNEREEYQQAVYIRSNEKIQNWNQAYQELASAYMQVEFVPVFDCLTDQAGQLKKEYTTDGLHLSIAGYQALSKSLKDYLY | soluble
GSHMIASLSDSVSNAREERMALRQEQEQLQSRIQSLMQRAPVWLAAQNSLNQLSEQCGEEFTSSQDVTEYLQQLLEREREAIVERDEVGARKNAVDEEIERLSQPGGSEDQRLNALAERFGGVLLSEIYDDVSLEDAPYFSALYGPSRHAIVVPDLSQVTEHLEGLTDCPEDLYLIEGDPQSFDDSVFSVDELEKAVVVKIADRQWRYSRFPEVPLFGRAARESRIESLHAEREVLSERFATLSFDVQKTQRLHQAFSRFIGSHLAVAFESDPEAEIRQLNSRRVELERALSNHENDNQQQR | soluble
MGSDKIHHHHHHMKNYKIVAIGDNVCDKYLSRGKMYPGGQCINTCVYGKMNGAETAYIGKYGNDEVAECVQNTLKEIGIDDSHCRHYEGENGFALVTLKNADRVFLGSNKGGIAKEHSYNFDENDFEYIKKFDLIYTNLNSYIEDNLKELHATGVPIAYDFSMRWTDEYLLKVCPYIDVAILSCAHLTAEEREKEMKKVQNYGVKIVLGTIGEDGSYVLYNGDFLYTSAIMAANIIDTMGAGDSYFSTFLCSLLQTSETGKLVEGTKESMKIRLESAMKSGAIFAANVCGMEGAFGYGVPIQGKTEI | not soluble
MGSDKIHHHHHHMRLTSREKEIFEVLKKEPLISQEELARRFNITRSSIAVHISNLMKKGVILGKGYVFNEQVSVVVIGESYYYIKTSGPDNDCSINMGLGGFAVDTGRIFANFGLNVKLITIVGNDEEGTNIFNELQGKGVDIVNIFRHAKKRSCRKVFLDDKRILEENFSLQDYEKAIDAREWVVFNCEWLVVDTRFQELLCHKAIGKDEEKLPFFCTCRYLYSIEEIPSFLSRYDLLVLGVADSNIMDHYLSQALALSSNGVQSVILSDGNTRLFYFQKGNAHEFPLLPNQCFDSQEGLPALLAGIVYGLSSGYSLRQAVRIAVGTAASND | not soluble
ARVDQTPQTITKETGESLTINCVLRDSNCALSSTYWYRKKSGSTNEESISKGGRYVETVNSGSKSFSLRINDLTVEDSGTYRCKPESRYGSYDAECAALNDQYGGGTVVTVNAAAHHHHHH | soluble
MSLKDLQKYQGIIPAFYACYDDKGDICPERVKALTNYFIDKGVQGLYVNGSSGECIYQSVADRKLVLENVMSVAKGKLTVIAHVACNNTKDSVELAMHAEAIGVDAIAAIPPIYFRLPEYAIADYWNTISQAAPQTDFIIYNIPQLAGVALTSDLYRKMLQNPQVIGVKNSSMPVQDIQNFVAIGGENHIVFNGPDEQFLGGRLMGAAAGIGGTYGVMPELYLTLNQLIVDKDLEKARELQFTINDIITKLCSGHGNMYAVIKAVLEINEQLTIGSVRLPLASVTEEDKPIIKEAAEEGHHHHHH | soluble
MFIGGAIISFLFLFGYMWKEAHSNRIRHVTLSFPHFPDNGPPLTIFFISDIHRRSVSCRMLETVKGKADLVVIGGDLAEKGVPAARVRENVRRLQTVAPVYFVWGNNDDEVDYDLQSLLEEERVYVLKNKAEVWEHGGVPIALIGVGDVSRKEADIARALEHVPPESFRILACHNPAIIARLEDEQHISLVLSGHTHGGQIRLFSFGLYEKGGLKWHGNTALFTSNGYGTTGVPLRLGAPAETHLIKIVPGKLATEKKCLSKTGKTMLEHHHHHH | not soluble
MGHHHHHHSHMKDLTDMDKNSPEAWCAAGNCFSLQREHDIAIKFFQRAIQVDPNYAYAYTLLGHEFVLTEELDKALACFRNAIRVNPRHYNAWYGLGMIYYKQEKFSLAEMHFQKALDINPQSSVLLCH | not soluble
HFVKSVEDKAISVTLAQGNIEQNLKWDPNYFYSTLAIYQKLITENLGKTDLIILPESALPTLENAITPFFEGLERAAKETKTEIMVGTVFQDTKSGKLLNSIMTAGNPDFPYQPNTQNRYNKHHLVPFGEYVPLESILRPLNSVFNLPMSAFQSGEAVQPSLIAKKRAFSPAICYEIIFGEQVRQNLKQDTDYLLTLSNDAWFGDSIGPWQHLQMARMRALELGKPLIRATNTGISVFVDAQGKVLAQAPQFIETTLTYKIAPAEGKTPYSVLGNMPLYALSLLFLLLHS | not soluble
AKDWFVAVFANMAHNENKITKISDSLKEYNKRVQEKYAKYDSGKGDSKYSETYLQYVEGGSLTSIFGVRSLGINPADGKEIYLRPDGTITYDWNAADQVVIGNEEPKLQGTFGFNLRWKQFSLYSTFMYEFGGQRYNSTLVSKVENAHIQSSNVDRRVLTGRWQKPGDCTPYGRLQTDGVVAVTRPTSRFIQDYNVLTFNSLTLGYDFNAEWLKKARIGLLRVELSGNDLFRVATVRAERGLDYPYSRSFAASVKMSF | not soluble
MSLNLETPSQENLNFMLTEITTKLKMVNVGVFENLELDSVDYNALIDIYQLIKRKSNFSPREMQLFAEELRRIRKEGHHHHHH | soluble
MSVPGPSSPDGALTRPPYCLEAGEPTPGLSDTSPDEGLIEDLTIEDKAVEQLAEGLLSHYLPDLQRSKQALQELTQNQVVLLDTLEQEISKFKECHSMLDINALFAEAKHYHAKLVNIRKEMLMLHEKTSKLKKRALKLQQKRQKEELEREQQREKEFEREKQLTARPAKRM | soluble
QKVPAPVDGERIIMELSEADVECTIKIEAEDGYANDIWADLNGNGKYDSGERLDSGEFRDVEFRQTKAIVYGKMAKFLFRGSSAGD | not soluble
MTGQNGQVARISPGKFRQLGPVNWLVAKLAARAVGAPQMHLFTTLGYRQYLFWTFAIYTGRLLHGRLPGVDTELVILRVAHLRSCEYELQHHRRMARRRGLDANTQATIFAWPDVPDGDGPRKVLSARQQALLQATDELIKDRTITAGTWERLATHLDPRLLIEFCLLATQYDAIAATITALAIPPDNPQ | soluble
PPLVANQVVTCPDKKSTAAVILTPTENHFTLKCPKTALTEPPTLAYSPNRQICPAGTTSSCTSKAVTLSSLIPEAEDSWWTGDSASLDTAGIKLTVPIEKFPVTTQTFVVGCIKGDDAQSCMVTVTVQARASSVVNNVARCSYGADSTLGPVKLSAEGPTTMTLVCGKDGVKVPQDNNQYCSGTTLTGCNEKSFKDILPKLTENPWQGNASSDKGATLTIKKEAFPAESKSVIIGCTGGSPEKHHCTVKLEFAG | soluble
MGSDKIHHHHHHMSKIVVLGAGPAGCSAGYHLAKSGHKVMLIDKDCFPRDKTCGDGISLGSVQALSTMGIYPDDIKRLASEYAQIDGFLLGVSNEISHLCPTELKGYCIPRFVFDNLLYQKAINAGCVARTQRISDIEGYHQELYSDFDYIIDARGVYAGEANAIAIRAYWSIKVADFPKIYLSKAQIYFDKAFGVNGYGWIFPVAVDSELVKLNVGVGVWLDEYQKNNTNIIRLFNEFVQRNQATKQLLSLVVSQQKPKAYPLATAKRANTVSYGKVFKIGDAANLTDPLTGEGIANAILSGLYVTQAINMSTSPELASENWQRLYQLYFEPDLDAGLQIKSFRKFSFINKLLIWLMNRNKPFAEQVTYTFAGLIPYKKLLP | not soluble
MTESEVRKLLRRMKELDSQTAFRAFYDMTYDRLYRIAYYYVKREEWSQEIVLDVFLKLWEQRSSLPEVKSIEDYCFILVKNASLNYLEKENRRTTVSTETLPEPEAQSDSPEESMISEELFAIYVKALDRLPERCREVFIRIREEKQSYAQVAEELGISTKTVDAQLQKATIRLKEAISMVNNDR | not soluble
MGHHHHHHSHMDNAVDRHVFYISDGTAITAEVLGHAVMSQFPVTISSITLPFVENESRARAVKDQIDAIYHQTGVRPLVFYSIVLPEIRAIILQSEGFCQDIVQALVAPLQQEMKLDPTPIAHRTHGLNPNNLNKYDARIAAIDYTLAHDDGISLRNLDQAQVILLGVSRCGKTPTSLYLAMQFGIRAANYPFIADDMDNLVLPASLKPLQHKLFGLTIDPERLAAIREERRENSRYASLRQCRMEVAEVEALYRKNQIPWINSTNYSVEEIATKILDIMGLSRRMY | not soluble
MAHHHHHHMPQVDLVKLLQICVNGALAAQQYILLDLIQLRSLEVSRRDVCIADLDQQEIARLRARLKAAVSVDVKGKLEYKEGGSVDDLVTTADVVTQGLMERLLAEAFPDTPFTIIGEEEATTTDAIKIQVERCVEAFRDVNAVAPLQKELEAHASSDSRHVSASTVEELRARVGVFIDPIDATSCFVDGTWGAPMTLVGITVDGVPVAGVSNRFFYSTVDDLTSGGNAGCTGLSYVWNDPSAGPFIVHEGRLATPLWSLGRKTTSNLAMLRVIRSGTTSNKRFEQLLARLQPVEPRSARGAGNKLMLLVVSMLAASDGAAAAACDVFLAPPNSISKWDTCAAHAFLLALGGDMRTLRGELIRYPLRGTTNLKTLPDGVVGLTRWSMTEGLRRLGWQ | not soluble
MAHHHHHHMHLLSFLSFIIWFIHCTAKRHEYSIKKYFLNSHNFCKIKPDPFRKDTLKKRLYSSDGIKDEIIIGTRDSPLALKQSEKVRKKIMSYFKKMNKNINVTFKYIKTTGDNILDSKSVGLYGGKGIFTKELDEQLINGNVDLCVHSLKDVPILLPNNIELSCFLKRDTINDAFLSIKYKSINDMNTVKSVSKTEDIHHINKKDSDHNNDTLCTIGTSSLRRRSQIKNRYKNIYVNNIRGNINTRIEKLYNGEVDALIIAMCGIERLIKKANLKHLLKNKEQKNICQPFLLKCNNKKCIDLCHVNIQKLNKNLIYPALGQGIIAVTSHKKNYFISSLLKNINNKKSEMMAQIERSFLYHIDGNCMMPIGGYTNMRNEDIYLHVIINDIHGYNKYQVTQKDTLYNYKEIGPNAAIKMKEIIGTEQFNKIKAEAELHLLNNK | not soluble
